From PMC2386126, “The Mycobacterium tuberculosis Rv2540c DNA sequence encodes a bifunctional chorismate synthase” (BMC Biochemistry, 2008) come the findings set out here.

This data set deals with the molecule itself. Kind of data set: SEC.

B1: chorismate synthase from M. tuberculosis (enzyme)
chain: MLRWITAGESHGRALVAVVEGMVAGVHVTSADIADQLARRRLGYGRGARMTFERDAVTVLSGIRHGSTLGGPIAIEIGNTEWPKWETVMAADPVDPAELADVARNAPLTRPRPGHADYAGMLKYGFDDARPVLERASARETAARVAAGTVARAFLRQALGVEVLSHVISIGASAPYEGPPPRAEDLPAIDASPVRAYDKAAEADMIAQIEAAKKDGDTLGGVVEAVALGLPVGLGSFTSGDHRLDSQLAAAVMGIQAIKGVEIGDGFQTARRRGSRAHDEMYPGPDGVVRSTNRAGGLEGGMTNGQPLRVRAAMKPISTVPRALATVDLATGDEAVAIHQRSDVCAVPAAGVVVETMVALVLARAALEKFGGDSLAETQRNIAAYQRSVADREAPAARVSG
notes: also called MtCS; CS
Turning to B1, the “stoichiometry N” value turned out to be 2.
